# B1: IQ motif and ubiquitin-like domain-containing protein (Homo sapiens), Q8NA54 (parent)
# chain: MSNQQEKYEAQNIVNSTEESDDAFDTVTIPVPSEEPQESDQTEEHESGIEQFSESHAIHVEEQSDQSFSSLEPDNEQLMEEVISPRQVSYTPQHHEKQYAMQRPNDDSLAFLDKIKSVKESLQESVEDSLATVKVVLIPVGQEIVIPFKVDTILKYLKDHFSHLLGIPHSVLQIRYSGKILKNNETLVQHGVKPQEIVQVEIFSTNPDLYPVRRIDGLTDVSQIITVTVQTGLDQYQQVPVEIVKSDFHKPFLGGFRHKVTGVEYHNAGTQTVPKRIPERLSIFCRDTQTVFQKKNLQQTTNTTSTQMTNIGVYVSNMTDKLVTPGKYFSAAEYHAQRLKAVIVIQTYYRQWHAKIFVENLRRQKSLRLEWETQQELRKIREKEEWIKLDYHRRHNPKTNEDFEFLYNALEFWRQEELTRINQSFTGAERKAALCELLEKETQIIASIGRHRYIAYMANQEAAIQAFLDKCSAPKIWRTPNGKTIEMDTQFTIRARELQNIYKCIMLKNISQDERLDVLLTLKHTVKEHECKLTQEILELIDREVDLMMRGVKHHNLEGLRKRIATLFFHYIKTPLFNPEVAKYLKVPQDPLKFYKKIYFCHSCQLYLPSTEFSVSSTSRRIYRCRNCINLQNEAQKRESFLKYKCLLQQLYYTEADYEDDSKIAFLMQLQDIQYLTENIWASQSVLSACDNLSDLVMVRWNKSLEWSPWNCILLTKDEAAAHLKLTSIEEGYERSFIHKIKHKHILAKNYFSQVPVLASFILDDGEIDEIRWKYHSDTTPKIIESQRPPH
# partner: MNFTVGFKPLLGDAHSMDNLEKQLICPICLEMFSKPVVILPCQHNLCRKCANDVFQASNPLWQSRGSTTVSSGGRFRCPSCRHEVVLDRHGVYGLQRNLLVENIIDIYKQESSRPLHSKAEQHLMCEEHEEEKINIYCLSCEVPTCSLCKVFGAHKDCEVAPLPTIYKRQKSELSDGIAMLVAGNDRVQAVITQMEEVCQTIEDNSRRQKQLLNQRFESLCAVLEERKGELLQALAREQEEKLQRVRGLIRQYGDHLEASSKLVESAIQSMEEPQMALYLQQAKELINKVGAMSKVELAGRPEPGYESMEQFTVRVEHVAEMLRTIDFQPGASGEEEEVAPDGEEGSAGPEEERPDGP
# B2: Filamin-binding LIM protein 1 (Homo sapiens), Q8WUP2 (parent)
# chain: MASKPEKRVASSVFITLAPPRRDVAVAEEVRQAVCEARRGRPWEAPAPMKTPEAGLAGRPSPWTTPGRAAATVPAAPMQLFNGGCPPPPPVLDGEDVLPDLDLLPPPPPPPPVLLPSEEEAPAPMGASLIADLEQLHLSPPPPPPQAPAEGPSVQPGPLRPMEEELPPPPAEPVEKGASTDICAFCHKTVSPRELAVEAMKRQYHAQCFTCRTCRRQLAGQSFYQKDGRPLCEPCYQDTLERCGKCGEVVRDHIIRALGQAFHPSCFTCVTCARCIGDESFALGSQNEVYCLDDFYRKFAPVCSICENPIIPRDGKDAFKIECMGRNFHENCYRCEDCRILLSVEPTDQGCYPLNNHLFCKPCHVKRSAAGCC
# partner: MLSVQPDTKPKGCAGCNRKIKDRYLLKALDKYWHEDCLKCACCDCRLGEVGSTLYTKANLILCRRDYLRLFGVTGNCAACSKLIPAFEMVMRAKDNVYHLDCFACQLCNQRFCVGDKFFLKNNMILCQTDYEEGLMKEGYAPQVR
# B3: LIM/homeobox protein Lhx4 (Homo sapiens), Q969G2 (parent)
# chain: MMQSATVPAEGAVKGLPEMLGVPMQQIPQCAGCNQHILDKFILKVLDRHWHSSCLKCADCQMQLADRCFSRAGSVYCKEDFFKRFGTKCTACQQGIPPTQVVRKAQDFVYHLHCFACIICNRQLATGDEFYLMEDGRLVCKEDYETAKQNDDSEAGAKRPRTTITAKQLETLKNAYKNSPKPARHVREQLSSETGLDMRVVQVWFQNRRAKEKRLKKDAGRHRWGQFYKSVKRSRGSSKQEKESSAEDCGVSDSELSFREDQILSELGHTNRIYGNVGDVTGGQLMNGSFSMDGTGQSYQDLRDGSPYGIPQSPSSISSLPSHAPLLNGLDYTVDSNLGIIAHAGQGVSQTLRAMAGGPTSDISTGSSVGYPDFPTSPGSWLDEMDHPPF
# partner: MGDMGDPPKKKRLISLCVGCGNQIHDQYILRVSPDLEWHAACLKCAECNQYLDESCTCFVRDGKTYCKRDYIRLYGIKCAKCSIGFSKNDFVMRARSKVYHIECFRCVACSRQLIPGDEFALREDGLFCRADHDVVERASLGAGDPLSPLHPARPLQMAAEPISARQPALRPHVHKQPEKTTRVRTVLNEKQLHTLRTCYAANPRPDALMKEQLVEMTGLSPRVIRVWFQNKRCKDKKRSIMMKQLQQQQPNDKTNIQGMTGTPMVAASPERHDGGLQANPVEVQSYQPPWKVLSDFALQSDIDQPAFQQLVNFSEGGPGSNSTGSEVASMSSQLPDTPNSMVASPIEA
# B4: Calcium-binding and coiled-coil domain-containing protein 2 (Homo sapiens), Q13137 (parent)
# chain: MEETIKDPPTSAVLLDHCHFSQVIFNSVEKFYIPGGDVTCHYTFTQHFIPRRKDWIGIFRVGWKTTREYYTFMWVTLPIDLNNKSAKQQEVQFKAYYLPKDDEYYQFCYVDEDGVVRGASIPFQFRPENEEDILVVTTQGEVEEIEQHNKELCKENQELKDSCISLQKQNSDMQAELQKKQEELETLQSINKKLELKVKEQKDYWETELLQLKEQNQKMSSENEKMGIRVDQLQAQLSTQEKEMEKLVQGDQDKTEQLEQLKKENDHLFLSLTEQRKDQKKLEQTVEQMKQNETTAMKKQQELMDENFDLSKRLSENEIICNALQRQKERLEGENDLLKRENSRLLSYMGLDFNSLPYQVPTSDEGGARQNPGLAYGNPYSGIQESSSPSPLSIKKCPICKADDICDHTLEQQQMQPLCFNCPICDKIFPATEKQIFEDHVFCHSL
# partner: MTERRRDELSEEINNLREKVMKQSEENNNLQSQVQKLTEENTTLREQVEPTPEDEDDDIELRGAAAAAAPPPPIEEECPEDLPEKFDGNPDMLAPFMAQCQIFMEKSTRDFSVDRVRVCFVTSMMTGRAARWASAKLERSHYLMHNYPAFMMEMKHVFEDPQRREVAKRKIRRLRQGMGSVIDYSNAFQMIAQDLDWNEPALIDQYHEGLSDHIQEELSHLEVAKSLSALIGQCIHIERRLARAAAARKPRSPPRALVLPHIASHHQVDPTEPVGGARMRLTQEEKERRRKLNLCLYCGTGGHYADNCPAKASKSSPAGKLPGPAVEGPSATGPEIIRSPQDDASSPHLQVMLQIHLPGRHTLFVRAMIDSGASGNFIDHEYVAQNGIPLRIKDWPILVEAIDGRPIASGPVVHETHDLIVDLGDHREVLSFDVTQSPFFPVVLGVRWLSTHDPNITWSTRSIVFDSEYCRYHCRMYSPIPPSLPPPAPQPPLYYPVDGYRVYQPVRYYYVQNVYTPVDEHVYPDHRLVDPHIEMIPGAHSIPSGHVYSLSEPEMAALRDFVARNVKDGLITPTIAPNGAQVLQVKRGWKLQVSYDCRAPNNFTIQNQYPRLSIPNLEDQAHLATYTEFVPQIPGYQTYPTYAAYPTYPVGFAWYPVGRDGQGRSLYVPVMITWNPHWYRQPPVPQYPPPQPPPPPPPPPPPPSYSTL
# B5: Pre-B-cell leukemia transcription factor 4 (Homo sapiens), Q9BYU1 (parent)
# chain: MAAPPRPAPSPPAPRRLDTSDVLQQIMAITDQSLDEAQARKHALNCHRMKPALFSVLCEIKEKTVVSIRGIQDEDPPDAQLLRLDNMLLAEGVCRPEKRGRGGAVARAGTATPGGCPNDNSIEHSDYRAKLSQIRQIYHSELEKYEQACREFTTHVTNLLQEQSRMRPVSPKEIERMVGAIHGKFSAIQMQLKQSTCEAVMTLRSRLLDARRKRRNFSKQATEVLNEYFYSHLNNPYPSEEAKEELARKGGLTISQVSNWFGNKRIRYKKNMGKFQEEATIYTGKTAVDTTEVGVPGNHASCLSTPSSGSSGPFPLPSAGDAFLTLRTLASLQPPPGGGCLQSQAQGSWQGATPQPATASPAGDPGSINSSTSN
# B6: RUN and FYVE domain-containing protein 1 (Homo sapiens), Q96T51-2 (parent)
# chain: MMEERANLMHMMKLSIKVLLQSALSLGRSLDADHAPLQQFFVVMEHCLKHGLKVKKSFIGQNKSFFGPLELVEKLCPEASDIATSVRNLPELKTAVGRGRAWLYLALMQKKLADYLKVLIDNKHLLSEFYEPEALMMEEEGMVIVGLLVGLNVLDANLCLKGEDLDSQVGVIDFSLYLKDVQDLDGGKEHERITDVLDQKNYVEELNRHLSCTVGDLQTKIDGLEKTNSKLQEELSAATDRICSLQEEQQQLREQNELIRERSEKSVEITKQDTKVELETYKQTRQGLDEMYSDVWKQLKEEKKVRLELEKELELQIGMKTEMEIAMKLLEKDTHEKQDTLVALRQQLEEVKAINLQMFHKAQNAESSLQQKNEAITSFEGKTNQVMSSMKQMEERLQHSERARQGAEERSHKLQQELGGRIGALQLQLSQLHEQCSSLEKELKSEKEQRQALQRELQHEKDTSSLLRMELQQVEGLKKELRELQDEKAELQKICEEQEQALQEMGLHLSQSKLKMEDIKEVNQALKGHAWLKDDEATHCRQCEKEFSISRRKHHCRNCGHIFCNTCSSNELALPSYPKPVRVCDSCHTLLLQRCSSTAS
# partner: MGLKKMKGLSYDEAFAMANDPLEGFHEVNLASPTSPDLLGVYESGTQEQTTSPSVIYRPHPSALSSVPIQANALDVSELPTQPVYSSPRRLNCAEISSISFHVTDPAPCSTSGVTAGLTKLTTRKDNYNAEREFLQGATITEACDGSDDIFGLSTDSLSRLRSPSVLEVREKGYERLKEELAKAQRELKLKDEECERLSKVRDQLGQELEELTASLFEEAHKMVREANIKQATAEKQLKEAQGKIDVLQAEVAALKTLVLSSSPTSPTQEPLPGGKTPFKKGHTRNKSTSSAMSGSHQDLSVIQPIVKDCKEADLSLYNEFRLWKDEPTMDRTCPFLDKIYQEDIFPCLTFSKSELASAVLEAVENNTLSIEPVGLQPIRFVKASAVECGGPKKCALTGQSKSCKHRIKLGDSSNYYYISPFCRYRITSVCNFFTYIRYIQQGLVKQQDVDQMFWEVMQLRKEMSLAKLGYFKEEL
# Variants of: B1
# Conditions: with tri54_human TRIM54, Q9BYV2
row,Variant,effect of a mutation on the interaction
1,I501F,disrupting interaction strength

# Variants of: B2
# Conditions: with lmo3_human LMO3, Q8TAP4
row,Variant,effect of a mutation on the interaction
1,Y204C,disrupting interaction strength

# Variants of: B2
# Conditions: with lmo3_human LMO3, Q8TAP4
# Remark: another data set of the same source
row,Variant,effect of a mutation on the interaction
1,E233K,with no effect
2,V174I,with no effect

# Variants of: B3
# Conditions: with isl1_human ISL1, P61371
row,Variant,effect of a mutation on the interaction
1,N328S,with no effect

# Variants of: B4
# Conditions: with peg10_human PEG10, Q86TG7
row,Variant,effect of a mutation on the interaction
1,P389A,with no effect
2,T273A,with no effect

# Variants of: B5
# Conditions: with tfp11_human TFIP11, Q9UBB9
# Chain of tfp11_human TFIP11, Q9UBB9 (Q9UBB9 whole entry): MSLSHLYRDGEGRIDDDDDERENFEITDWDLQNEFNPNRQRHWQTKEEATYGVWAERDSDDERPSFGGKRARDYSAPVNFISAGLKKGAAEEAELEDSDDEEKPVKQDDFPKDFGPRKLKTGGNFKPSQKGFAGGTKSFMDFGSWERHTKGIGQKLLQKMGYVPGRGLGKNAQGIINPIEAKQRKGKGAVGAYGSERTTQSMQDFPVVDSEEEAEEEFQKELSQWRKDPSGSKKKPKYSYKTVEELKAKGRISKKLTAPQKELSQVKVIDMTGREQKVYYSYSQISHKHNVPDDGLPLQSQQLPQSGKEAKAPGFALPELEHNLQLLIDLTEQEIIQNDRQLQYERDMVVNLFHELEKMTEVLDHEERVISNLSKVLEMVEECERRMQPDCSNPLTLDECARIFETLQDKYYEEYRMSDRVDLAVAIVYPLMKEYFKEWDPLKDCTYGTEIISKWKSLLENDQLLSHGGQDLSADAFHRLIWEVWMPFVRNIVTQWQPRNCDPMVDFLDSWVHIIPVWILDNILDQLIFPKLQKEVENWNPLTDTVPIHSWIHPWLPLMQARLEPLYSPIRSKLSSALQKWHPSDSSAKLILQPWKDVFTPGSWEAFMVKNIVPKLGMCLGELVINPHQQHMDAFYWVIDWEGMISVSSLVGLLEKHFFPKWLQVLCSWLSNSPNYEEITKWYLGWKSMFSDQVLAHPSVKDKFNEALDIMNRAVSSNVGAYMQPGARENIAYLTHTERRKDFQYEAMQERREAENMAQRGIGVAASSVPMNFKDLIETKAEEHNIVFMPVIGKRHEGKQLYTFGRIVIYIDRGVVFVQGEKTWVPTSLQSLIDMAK
row,Variant,effect of a mutation on the interaction
1,R327Q,with no effect
2,T283M,with no effect
3,T154M,with no effect

# Variants of: B6
# Conditions: with rab3i_human RAB3IP
row,Variant,effect of a mutation on the interaction
1,C159F,with no effect

# From IntAct's records for PubMed 31515488
